Data published in paper PMC6881172, “Allosteric modulation of nucleoporin assemblies by intrinsically disordered regions” (Science Advances, 2019).
Where “and” joins values, the source holds several entries; their conditions need not be identical. Equal entries are not always repeated.

T1: Kap121 (full-length) (Saccharomyces cerevisiae), P32337
T1 chain: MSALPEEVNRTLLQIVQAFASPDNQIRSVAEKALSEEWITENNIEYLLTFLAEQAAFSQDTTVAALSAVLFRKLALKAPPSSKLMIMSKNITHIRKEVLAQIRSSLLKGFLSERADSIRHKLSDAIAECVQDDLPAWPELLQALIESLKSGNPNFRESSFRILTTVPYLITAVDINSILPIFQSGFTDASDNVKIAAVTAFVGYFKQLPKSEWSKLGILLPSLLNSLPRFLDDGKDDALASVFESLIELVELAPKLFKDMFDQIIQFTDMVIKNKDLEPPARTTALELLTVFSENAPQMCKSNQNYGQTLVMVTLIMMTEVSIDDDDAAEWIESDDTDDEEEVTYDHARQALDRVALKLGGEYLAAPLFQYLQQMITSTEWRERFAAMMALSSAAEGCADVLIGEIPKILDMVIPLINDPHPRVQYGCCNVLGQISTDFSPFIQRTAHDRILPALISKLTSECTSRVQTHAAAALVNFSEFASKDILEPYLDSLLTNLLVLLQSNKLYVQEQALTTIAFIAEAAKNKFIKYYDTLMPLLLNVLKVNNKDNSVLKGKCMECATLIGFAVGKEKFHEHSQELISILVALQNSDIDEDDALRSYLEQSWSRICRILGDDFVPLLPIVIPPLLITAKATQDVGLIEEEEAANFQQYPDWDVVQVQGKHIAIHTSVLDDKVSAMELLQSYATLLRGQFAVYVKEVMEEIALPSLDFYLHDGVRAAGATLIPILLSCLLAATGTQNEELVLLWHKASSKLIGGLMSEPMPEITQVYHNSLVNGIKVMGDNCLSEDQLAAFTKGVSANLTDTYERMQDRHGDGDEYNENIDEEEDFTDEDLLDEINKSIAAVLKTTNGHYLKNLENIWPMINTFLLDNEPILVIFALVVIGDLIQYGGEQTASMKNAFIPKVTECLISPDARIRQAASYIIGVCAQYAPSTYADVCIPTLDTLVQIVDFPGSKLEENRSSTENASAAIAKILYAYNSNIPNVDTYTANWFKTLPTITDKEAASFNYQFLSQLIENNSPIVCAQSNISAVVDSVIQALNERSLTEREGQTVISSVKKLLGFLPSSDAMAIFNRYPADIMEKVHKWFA

T2: Kap121 (full-length) (Saccharomyces cerevisiae, UniProt P32337 1-1089)
T2 construct: Kap121 (karyopherin), Saccharomyces cerevisiae, full-length; source: E. coli BL21-CodonPlus(DE3)-RIL, purified (HisTrap HP, TEV cleavage, HiTrap Q, Superdex 200); not shown: SUMO-His6, N-terminal, cleaved
T2 sequence (looked up): T1 chain

T3: Nup53 fragment 53NTD (N-terminal IDR) (Saccharomyces cerevisiae)
T3 chain: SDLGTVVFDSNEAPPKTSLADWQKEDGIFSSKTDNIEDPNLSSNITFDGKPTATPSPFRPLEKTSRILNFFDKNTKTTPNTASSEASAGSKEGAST

B1: Nup157 fragment 157N (domain or fragment)
chain: MYSTPLKKRIDYDRETFTASASLGGNRLRNRPRDDQNNGKPNLSSRSFLSERKTRKDVLNKYGEAGNTIESELRDVTTHVKISGLTSSEPLQLASEFVQDLSFRDRNTPILDNPDYYSKGLDYNFSDEVGGLGAFTPFQRQQVTNIPDEVLSQVSNTEIKSDMGIFLELNYCWITSDNKLILWNINNSSEYHCIDEIEHTILKVKLVKPSPNTFVSSVENLLIVATLFDIYILTISFNDRTHELNIFNTGLKVNVTGFNVSNIISYERTGQIFFTGATDGVNVWELQYNCSENLFNSKSNKICLTKSNLANLLPTKLIPSIPGGKLIQKVLEGDAGTEEETISQLEVDQSRGVLHTLSTKSIVRSYLITSNGLVGPVLIDAAHIRRGMNALGVKNSPLLSNRAFKIAKIVSISMCENNDLFLAVITTTGVRLYFKGSISRRSIGSLKLDSVKFPPTSISSSLEQNKSFIIGHHPLNTHDTGPLSTQKASSTYINTTCASTIISPGIYFTCVRKRANSGELSKGITNKALLENKEEHKLYVSAPDYGILKNYGKYVENTALLDTTDEIKEIVPLTRSFNYTSTPQGYANVFASQYSAEPLKVAVLTSNALEIYCYRTPDEVFESLIENPLPFIHSYGLSEACSTALYLACKFNKSEHIKSSALAFFSAGIPGVVEIKPKSSRESGSVPPISQNLFDKSGECDGIVLSPRFYGSALLITRLFSQIWEERVFVFKRASKTEKMDAFGISITRPQVEYYLSSISVLADFFNIHRPSFVSFVPPKGSNAITASDAESIAMNALILLINSIKDALSLINVFYEDIDAFKSLLNTLMGAGGVYDSKTREYFFDLKFHDLFTPNAKTKQLIKEILIEVVNANIASGTSADYIVNVLKERFG
B2: Nup53 C-terminal IDR (53C) (domain or fragment)
chain: KKSEEIINNKTSSQTSLSSKDLSNYRKTEGIFEKAKAKAVTSKVRNAEFKVSKNSTSFKNPRRLEIKDGRSLFLRNRGKIHS
modifications: not checked
B3: Nup53 53core (near-intact Nup53 construct encompassing the N- and C-terminal IDRs and the RRM domain) (domain or fragment)
chain: SDLGTVVFDSNEAPPKTSLADWQKEDGIFSSKTDNIEDPNLSSNITFDGKPTATPSPFRPLEKTSRILNFFDKNTKTTPNTASSEASAGSKEGASTNWDDHAIIIFGYPETIANSIILHFANFGEILEDFRVIKDFKKLNSKNMSKSPSLTAQKYPIYTGDGWVKLTYKSELSKSRALQENGIIMNGTLIGCVSYSPAALKQLASLKKSEEIINNKTSSQTSLSSKDLSNYRKTEGIFEKAKAKAVTSKVRNAEFKVSKNSTSFKNPRRLEIKDGRSLFLRNRGKIHS
B4: Nup53 fragment 53CTD (domain or fragment)
chain: RNAEFKVSKNSTSFKNPRRLEIKDGRSLFLRNRGKIHS
B5: Nic96 fragment (domain or fragment)
chain: GNNILNSNESRLNVNENNILREKFENYARIVFQFNNSRQANGNFDIANEFISILSSANGTRNAQLLESWKILESMKSKDINIVEVGKQYLEQQFLQYTDNLYKKNMNEGLATNVNKIKSFIDTKLKKADKSWKISNLTVINGVPIWALIFYLLRAGLIKEALQVLVENKANIKKVEQSFLTYFKAYASSKDHGLPVEYSTKLHTEYNQHIKSSLDGDPYRLAVYKLIGRCDLSRKNIPAVTLSIEDWLWMHLMLIKEKDAENDPVYERYSLEDFQNIIISYGPSRFSNYYLQTLLLSGLYGLAIDYTYTFSEMDAVHLAIGLASLKLFKIDSSTRLTKKPKRDIRFANILANYTKSFRYSDPRVAVEYLVLITLNEGPTDVELCHEALRELVLETKEFTVLLGKIGRDGARIPGVIEERQPLLHVRDEKEFLHTITEQAARRADEDGRIYDSILLYQLAEEYDIVITLVNSLLSDTLSASDLDQPLVGPDDNSETNPVLLARRMASIYFDNAGISRQIHVKNKEICMLLLNISSIRELYFNKQWQETLSQMELLDLLPFSDELSARKKAQDFSNLDDNIVKNIPNLLIITLSCISNMIHILNESKYQSSTKGQQIDSLKNVARQCMIYAGMIQYRMPRETYSTLINIDVSL

Columns and labels:
[1] = molecular target: human Nup35 RRM domain (human); test: SEC-MALS; human Nup35 RRM domain at 15 mg/ml on Superdex 200 10/300 GL in the ITC binding buffer, room temperature
Nup53 fragment 53CTD = molecular target: B4; test: ITC; single titrations, single-site 1:1 binding model where fitted; 20 mM Hepes pH 7.5, 150 mM NaCl, 0.5 mM TCEP; 15°C; Kap121 150 μM with Nup53 fragments 15 μM; conditions: both partners purified
[2] = molecular target: B3; test: as above; conditions: both partners purified
[3] = molecular target: T1, Kap121 (full-length) (Saccharomyces …); test: ITC; 53C·Kap121 forward and reverse titrations at various protein concentrations, global analysis with a two-mode binding model (1:1 and 2:1 53C:Kap121); 20 mM Hepes pH 7.5, 150 mM NaCl, 0.5 mM TCEP; 15°C
[4] = molecular target: the molecule itself; test: ITC; dimer to monomers: concentrated 53core injected in 2-μl increments into buffer, three protein concentrations, monomer-dimer equilibrium model; constant printed for 2A ↔ A2; 15°C
Kap121 (full-length) [5] = molecular target: T2, Kap121 (full-length); test: ITC; forward and reverse titrations with Kap121 at various protein concentrations, global analysis with a multiple-equilibrium model (53core dimerization, monomer constants fixed at the 53C values); 15°C; conditions: both partners purified
[6] = molecular target: the molecule itself; test: ITC; dimer to monomers: concentrated 53core injected in 2-μl increments into buffer, three protein concentrations, monomer-dimer equilibrium model; constant printed for 2A ↔ A2; 15°C; remark: listed apart in the source
Kap121 (full-length) [7] = molecular target: T2, Kap121 (full-length); test: ITC; single titrations, single-site 1:1 binding model where fitted; 20 mM Hepes pH 7.5, 150 mM NaCl, 0.5 mM TCEP; 15°C; Kap121 150 μM with Nup53 fragments 15 μM; conditions: both partners purified
[8] = molecular target: 53core·HsKapβ1 complex (stoichiometric 53core:HsKapβ1 mixture) (Saccharomyces cerevisiae | human, UniProt Q03790 1-475; Q14974 1-876); test: ITC; Nic96 titrated into stoichiometric 53core:Kap121 or 53core:HsKapβ1 mixtures; single-site 1:1 model; apparent constants; 15°C; conditions: both partners purified
[9] = molecular target: T4, 53core·Kap121 complex (stoichiometric 53core:Kap121 mixture) (Saccharomyces cerevisiae, UniProt Q03790 1-475; P32337 1-1089); test: as above; conditions: both partners purified
[10] = molecular target: T3, Nup53 fragment 53NTD (N-terminal IDR); test: ITC; single titrations, single-site 1:1 binding model where fitted; 20 mM Hepes pH 7.5, 150 mM NaCl, 0.5 mM TCEP; 15°C; Kap121 150 μM with Nup53 fragments 15 μM; conditions: both partners purified
[11] = molecular target: T4, 53core·Kap121 complex (stoichiometric …); test: ITC; Nic96 titrations into 53core:Kap121 mixtures, global analysis with a multiple-equilibrium model that separates monomeric and dimeric 53core·Kap121 complexes; 15°C; conditions: both partners purified

53core·HsKapβ1 complex (stoichiometric 53core:HsKapβ1 mixture), sequence (Q14974 1-442, one chain of several): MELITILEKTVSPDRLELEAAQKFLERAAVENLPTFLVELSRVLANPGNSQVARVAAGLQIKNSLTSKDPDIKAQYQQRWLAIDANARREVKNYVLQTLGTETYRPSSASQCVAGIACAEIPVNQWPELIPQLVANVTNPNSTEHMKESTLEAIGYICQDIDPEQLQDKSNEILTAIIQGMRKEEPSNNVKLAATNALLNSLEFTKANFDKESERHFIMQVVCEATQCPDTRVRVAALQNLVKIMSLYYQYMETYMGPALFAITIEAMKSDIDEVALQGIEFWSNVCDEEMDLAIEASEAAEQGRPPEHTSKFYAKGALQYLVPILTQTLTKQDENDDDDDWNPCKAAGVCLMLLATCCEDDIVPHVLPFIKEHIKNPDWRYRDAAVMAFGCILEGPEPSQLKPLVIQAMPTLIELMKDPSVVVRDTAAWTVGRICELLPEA

human Nup35 RRM domain (domain or fragment)
stoichiometry N [1]: 2

B1
Ka (Nup53 fragment 53CTD): 1.6e+06 M⁻¹
stoichiometry N (Nup53 fragment 53CTD): 1
Ka [2]: 1.1e+06 M⁻¹
dH [2]: -10.1 kcal/mol

B2
K of the 2:1 mode (2A + B ↔ A2*B) [3]: 1.9e+11 M^-2
KA of the 1:1 mode (A + B ↔ AB) [3]: 4.2e+06 M⁻¹
KA per IDR binding (square root of the 2:1 constant) [3]: 440000 M⁻¹
dH of the 1:1 mode (A + B ↔ AB) [3]: -2.7 kcal/mol
dH of the 2:1 mode (2A + B ↔ A2*B) [3]: 4.2 kcal/mol
stoichiometry N [3]: 2 and 1

B3
Ka [4]: 10000 M⁻¹
dH [4]: 6.5 kcal/mol
KA of the 53core dimer with one Kap121 (A2 + B ↔ A2B) (Kap121 (full-length) [5]): 5.6e+07 M⁻¹
dH of A2 + 2B ↔ A2B2 (Kap121 (full-length) [5]): -1.3 kcal/mol
dH of A2 + B ↔ A2B (Kap121 (full-length) [5]): 16.3 kcal/mol
stoichiometry N [6]: 2

B4
Ka (Kap121 (full-length) [7]): 210000 M⁻¹
fold weaker than the canonical NLS peptide (Kap121 (full-length) [7]): ~45 fold
stoichiometry N (Kap121 (full-length) [7]): 1

B5
Ka [8]: 100000 M⁻¹
dH [8]: -5.1 kcal/mol
Ka [9]: 130000 M⁻¹
dH [9]: -5.2 kcal/mol
Ka [10]: 700000 M⁻¹
stoichiometry N [10]: 1
Ka [2]: 990000 M⁻¹
dH [2]: -4.4 kcal/mol
KA for the dimeric 53core·Kap121 complexes (A2Bi + C ↔ A2BiC) [11]: 120000 M⁻¹
KA for the monomeric 53core·Kap121 complex (AB + C ↔ ABC) [11]: 200000 M⁻¹
dH for the dimeric 53core·Kap121 complexes (A2Bi + C ↔ A2BiC) [11]: -2.5 kcal/mol
dH for the monomeric 53core·Kap121 complex (AB + C ↔ ABC) [11]: -6.7 kcal/mol
